Data on 1 molecule can be found in patent US9192657B2.

The target in the test is T1, PAR-1 N-terminal tail peptide (TR33-62) (artificial).
T1 sequence (peptide): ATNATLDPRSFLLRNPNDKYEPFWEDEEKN

B1: KKK191-193AAA-APC (enzyme)
chain: ANSFLEELRHSSLERECIEEICDFEEAKEIFQNVDDTLAFWSKHVDGDQCLVLPLEHPCASLCCGHGTCIDGIGSFSCDCRSGWEGRFCQREVSFLNCSLDNGGCTHYCLEEVGWRRCSCAPGYKLGDDLLQCHPAVKFPCGRPWKRMEKKRSHLKRDTEDQEDQVDPRLIDGKMTRRGDSPWQVVLLDSAAALACGAVLIHPSWVLTAAHCMDESKKLLVRLGEYDLRRWEKWELDLDIKEVFVHPNYSKSTTDNDIALLHLAQPATLSQTIVPICLPDSGLAERELNQAGQETLVTGWGYHSSREKEAKRNRTFVLNFIKIPVVPHNECSEVMSNMVSENMLCAGILGDRQDACEGDSGGPMVASFHGTWFLVGLVSWGEGCGLLHNYGVYTKVSRYLDWIHGHIRDKEAPQKSWAP
As for B1, the PAR-1 peptide (TR33-62) cleavage (% rwt-APC), catalytic efficiency by HPLC was 88 % rwt-APC.
